Laboratory results taken from publication PMC11213015.

Target: biotinylated-YE (UpxY of the PSE operon, Bacteroides fragilis) (Bacteroides fragilis NCTC 9343)
Test: BLI

Kd [nM] | koff [s⁻¹] | kon [M⁻¹ s⁻¹] | Binder
88 | 0.0096 | 110000 | ZE (UpxZ of the PSE operon, Bacteroides fragilis) (natural protein) MNTLMTQIHELQHVAHELLYLGADGSPIYTDSFRQLNTEVLQKSDALFALKGENPEEEARLCLALLMGYNATIYDYGDKESKKQVILDRSLLVLESLPSSLLKCQLLTYCYGEVFEEELAKEAHAIIDYWDNKTLSIDEQETVDMLKMIEENQYPNNYID
0.9 | – | 1.1e+06 | ZA (UpxZ of the PSA operon, Bacteroides fragilis) (natural protein) MNQVQNLQHIARELLYLGMDGSPIYTDHFRQLNTEVFRLSEALFSMKGATSEEEAAICLSLLMGYNATIYNDGDKESKIQSILDRSFAVLDHLPASLLKCQLLTYCYGEVFEEDLAQEAHQIMDSWKNRALSEEELEVMETLQTMEDNRYPCSEVED
